In a protein production outcome set (Wang et al. 2014) one finds protein production data, which are given here for 17 sequences.

The series is described as follows: label from the status in PepcDB records.

Turning to “MMNNSEGLKSFQQSLADLPQWVSERLLQQINQLTNYEPVIGIMGKTGVGKSSLCNALFAGDISPVSDVAACTREPLRFRLQVGDRYITLMDLPGVGESGARDTEYAALYREQLPRLDLVLWLIKADDRALTVDEHFYHQVIGEVYRHKVLFVISQSDKAEPTSGGGQLSTAQKQNISRKICLLHELFQPVHPVCAVSVRLQWGLKVMAERMIKCLPREATSPVVSQLHPSFRTTVVREQARSDFGETVGAVLDSISAFPLIPAPVRAVIQAVRTTVVSVARAVWDFFF”, the protein production result is recorded as “failed”.

For the sequence “MMNRLAVRIPTMHSFAWTAADAASRWRLLRISMLLQGFPRNPEPAVRAPDLWRTRVGGGSFGVLFLEAAEVPEALPMQGLSASLVLIAVLAVLAPVATRLLDRWVKVPIVVFEIVLGILFGPSVLGWVQSTPFTDTLADFGLAMLFFVAGNEIDFAAIRGRPIYRASAGWVISLAAGIGAGFVLGPSPEAAVIIGVALCSTALGALLPILRDAGASKSPIGVAATALGAAGEFGPLIAISLFFSGKQLGVASGVLLGFVLLTGVAIYLASQARHTLFHAQVTATLHTSSQFAMRSILLILSSLVVLSMVLGLDMLLGAFAAGVLWKVTIARAPVADRKVIETKIDAVAFGFLVPIFFIDTGIDFDLGALTSSPLTLAMVPLFLSLLLLIRGVPSLLATPPGSSRADKQALLLFGATALPIIVAVTTIGREHGYITSGISSALIGAGMLSVLLFPLLALRLLRRTEAADPKQRTPKA”, the protein production result is “failed”.

For the sequence “MMNRNLVVALAGNPNCGKTSLFNELTGSKQHVGNWPGVTVEKKEGKLKFEGREITIVDLPGTYSLGAYSEDEVVARDFILKDKPDVVINVVDACNLERNLYLTTQILETGAKVVLALNMMDEANTRNIDINIEKLQKSIGIPVVPTVATKKQGIKELVKNAIKLGDSESEELYTIDYGSDIQKEVDGIKAAIDEASVTLEYPKAWVSLKLLENDDYIRKYIDNSIKDDEVKHKVSEGIENLTSIIGYEPDAFIVDKRYELISKFVKNSVKKNEVQEESTSDKIDKVLTNKFLGIPIFAIIMFAVYQVSINFGNGTLSDLINDSLGQLGTNIAFTLDGFGVPKIIGAFVRDGVFAGVGSVLGFFPMILIMFFLISLLEDSGYMARAAYVMDRLMSAVGLHGKTAVSLIVGSGCNVAGIMSARTLESKKDRMIAILITPFISCPARLTVYGVFVGAFFAKQKLGIFSLGGIIIFLLYALGIFVAICAGKFFSSKVFEGETSYFVMELPPYRLPTLKGILIHMWEKSGHFLKKAGTIILGVCIIVWILADLPAGVEYGSKDSLLGIIGTFIAPIFKPAGFGSWQAGVALITGFAAKEAVVGTLGTIYGVNEGTQLFHAIHNTFTPLSAISFMIMTLLYVPCVATIGAVKSETNSNKWTVAVIIYTCVIGWVLATIFYQVGRLLGYV”, the protein production entry was “failed”.

For the sequence “MMPDKKGYIIDIDGVIGKSVTPIPEGVEGVKKLKELGKKIIFVSNNSTRSRRILLERLRSFGLEVGEDEILVATYATARFIAREKPNAKVFTTGEEGLIEELRLAGLEIVDYDEAEYLVVGSNRKINFELMTKALRACLRGIRYIATNPDRIFPAEDGPIPGTGMIIGALYWMTGREPDVVVGKPSEVIMREALDILGLDAKDVAVVGDQIDVDVAAGKAIGAETVLVLTGVTTRENLDQMIERHGLKPDYVFNSLKDMVEALEG”, the protein production result is reported as “not failed”.

Take “MMPLKDGDFVLINYTVKVVEDGSERVIDTTLEEVAKKSGIYDPKRVYKEFPVIVGKTSLLGPLEKVLKELDVGERREVEVPPEEAFGEYKKELVVRVPVKRLRRMNIPVRVGEEVEAGGRRGKIIRVTERFAFIDFNHPLAGKKLKIEVEVVGKVDSVEDKARILAARALGLDPDKIHAEVREGGKEITLKLPPEVLGLSDLDALLAKAVSDVREYLSPRKVDVVISIEFPEEAREEAEASDTGEGGEAEGESEQAAEPGGGEERQEG”: the protein production entry is recorded as “failed”.

As for “MMRHERLRFWLAGLAAAATGWLCYAGLARLAGALGVATWIPYPALRRQWLLIGESWQSAEFSGAIADASVFLTALAAVAAYYCARIVYHLSFAPVRQRRARWLIAGWIVGTVAMVALSQSLGWLYGAFPGFARIGWLSAALGFAVLAGAASGFARAWGRLMRARKVPATE”, the protein production entry is reported as “failed”.

For the sequence “MMRQVRRGATPPPGPGPSAPPYGAGVPQQPSYTDGQGHGGDGYDSGYNTGQVYGGGGGGQGPGRQVRDRPAPDWRRRIKWTAITVVTVLVVTTVGTYFWADSKLNRDVDLSKVIDRPAAGEGTNYLIVGSDSREGMSKDQMKDLHTGYAEGKRTDSMMILHTGDNGSTLISLPRDSDVEIPSFVGSESGKKYPGTGRHTKLNAAYAEDGPELLVRTVEHNTGLRLDHYVEIGFGGFANIVDAVGGVEIDIPQDIKDKKSGADLKKGKQTLDGQEALAFVRTRYALAGSDLDRTKNQQKFLSALASQVATPSTVLNPFRLYPTMGAGLDSLVVDKDMGLFDLASMFWAMKSVSGGEGTSMNMPISGSVGGNLKWDDAKVKKLVEELKNDEKVTVSGNN”, the protein production result is “failed”.

On to “MMSFSQIINDFIQSFSSINLGGNFKEIVTNPLTILTLIGVLIILVLLIKAKDIKFDAKMLTTIGIALALTAVLNMLKIYKFPQGGGITLGSMIPIILIAYAYGPLVGMLTGFLFGIISLFIDPYILHPVQVLFDYPIPYMALGVAGFFKNHRISGAVVAIFLKFLAHFISGVVFFGSFAPEGMSPILYSFLVNGSLIGADGLICVVLLGILPVNRLIKAISSKSVTSKYAS”, for which the protein production entry is “failed”.

On to “MMSGEHTLKAVRGSFIDVTRTIDNPEEIASALRFIEDGLLLIKQGKVEWFGEWENGKHQIPDTIRVRDYRGKLIVPGFVDTHIHYPQSEMVGAYGEQLLEWLNKHTFPTERRYEDLEYAREMSAFFIKQLLRNGTTTALVFGTVHPQSVDALFEAASHINMRMIAGKVMMDRNAPDYLLDTAESSYHQSKELIERWHKNGRLLYAITPRFAPTSSPEQMAMAQRLKEEYPDTWVHTHLCENKDEIAWVKSLYPDHDGYLDVYHQYGLTGKNCVFAHCVHLEEKEWDRLSETKSSIAFCPTSNLYLGSGLFNLKKAWQKKVKVGMGTDIGAGTTFNMLQTLNEAYKVLQLQGYRLSAYEAFYLATLGGAKSLGLDDLIGNFLPGKEADFVVMEPTATPLQQLRYDNSVSLVDKLFVMMTLGDDRSIYRTYVDGRLVYERN”, for which the protein production result is recorded as “failed”.

For the sequence “MMSNGGDSSEIVRELEELKLKKAEIEHRISTLEAKLQDTAAVELYDAVSNGDSYLTAPELEHGLSPDQIYRYSRQLLLPSFAVEACGVGQLGIIDHDVVELNNMHRQIIHTEAFIGHPKVKSAAAACRSINSTIKVDEYVEALRTSNALEILSQYDIIVDATDNPPSRYMISDCCVLLGKPLVSGAALGMEGQLTVYNHNGGPCYRCLFPTPPPTSACQRCSDSGVLGVVPGVIGCLQALETIKLASLVGEPLSERMLLFDALSARMRIVKIRGRSSQCTVCGDNSSFNKQTFKDFDYEDFTQFPLFAGPLNLLPAESRISSKEFKEILQKKEQHVLLDVRPSHHYKIVSLPDSLNIPLANLETRLNELTSALKEKGNGHANTESCTNPSVFVVCRRGNDSQRAVQYLRESGFDSAKDIIGGLEAWAANVNPNFPTY”, the protein production entry is listed as “failed”.

In the case of “MMSPRIGLTLQKIVETAAEIADANGVQEVTLASLAQTLGVRSPSLYNHVKGLQDVRKNLGIYGIKKLHNRLEEAAEDKRMDEAIHALGEAYVAFVRKHPGLYEATFLRDEEVRKAGDGIVKLCLQVLQQYGLEGENALHATRGFRSICHGFASIEQQGGFGLPLDLDISLHVLLETFIKGLRE”, the protein production entry is recorded as “not failed”.

Regarding “MMSSSRRSFMAAGLVVVLAVAALIFGAPGPVPLSAGSSMSDRGAADTAEAPPKSSWAGRQFRDMTLDEKIAQLFVVRIDGEFQNANTPSYRETVALVEEFGAGGLIFGPGTPMTQIAMANDLQAKAERPLLVAQDTEWGVGMRIDAATSFPPAMAIGATRDASHAYRVGYATAREARALGVHQLYAPVADVNNNPKNPIINVRSFGESPSLVGTMASAFTRGAQRGGTLATVKHFPGHGDTDVDSHINLPVLRFDRSRLDSLELPPFRQAFDAGVRSVMTGHLALPEIAADSVPATLSRPLTHGLLREELGFDGLVVTDALNMQAVTRTFGVGETAVRVLEAGADLVLMSTNPHAAHQAVRQAVTSGRIDTTEINDSVRRLLRVKQDLRLHETRRVSLDTTRHRVAQRSHEVLARTVARESLTLLANADSLLPLTPPEQHDALVVTLSDSEYPGTGDTFVDRLRAQPAIETLDTRRLDPRSDSTDVNDHLADAADYDVVVVPSFLRVQAWSGSIGLSDMHHDFLEDLAGTDTPVAFVAFGNPYAPTGLEPAPDAILAAYGSGEASQRAAAQALGGGAGTPGRLPVTIPGVAEKGEGRRLAPVAPREGPPESVGMDGAQLARLDTLLRSAMLDGAFPGAAVAVGRGPALARLDAYGYHTYDETKPVQTGTQYDLASLTKVVATTTAVMKLYEADSLELDAPVARYLPDFAQNGKEAVTVRQLLTHSSGLKPYLDPDERGPTRAALLDTLMAQPLTYTPGTRSTYSGLNAIALMRIVETISGRPFDAFCRTHIFEPLGMDQTGFYDTDVTRAWVAPTTDTAGTRRRGSVHDPMARDMDGVSGNAGLFSTAADLARFGYMLTHEGRIDGRQFLEPKTIETFTAQADVPGSTRALGWDTKSAEGYSSAGDEFSAASFGHTGYTGTSFWVDPAEDLFFVLLTNRVYPDDTADRITQVRPRAADIVHRAIDGPPRPLLPGPAPEQ”, the protein production result was “failed”.

In the case of “MMTDKLNLNVLDAAFYSLEQTVVQISDRNWFDMQPSIVQDTLIAGAIQKFEFVYELSLKMMKRQLQQDAINTDDIGAYGFKDILREALRFGLIGDMSKWVAYRDMRNITSHTYDQEKAMAVYAQIDDFLIESSFLLEQLRQRNQYD”, the protein production result is recorded as “not failed”.

On to “MMTHYSDNTLKVAHQGFEFFTQGLATGEWQKFLDMLTEDFTFWFPMGEFHGLNVGKERAKEFFTYVSESFHTGIQISSLDRVTSNETTVVFEFRDEGLFLGKPYKNRVAVSFDVRGDKICSYREYFGSDGKSN”, for which the protein production result is “not failed”.

On to “MMTSAAPKPVRENIARAKAYLRRDDLPRSMAAMATALRELKGTRLIGQARFETEVNIHEYVTELNRHQAVRRFFEAQGVLSTPFVTYAKGAETELAERLESIRAGFEKDVAAHAAQHAAKVAHRKEALLRSGQEKLDAGDAPRGRSFLKRAADEFGHEAGVLTDIGQRLQRAGLLFEAAEMFENAIAAFPKDGHAHAGVVAAYMGLQEYPKAEMAYTRALKQFGTHPKTLVNMARMYLAWRKRDEAWTHIQRALQLAPGDAEAKALLAEIEGRGSRR”, for which the protein production result is reported as “failed”.

In the case of “MMVLRMKVEWYLDFVDLNYEPGRDELIVEYYFEPNGVSPEEAAGRIASESSIGTWTTLWKLPEMAKRSMAKVFYLEKHGEGYIAKIAYPLTLFEEGSLVQLFSAVAGNVFGMKALKNLRLLDFHPPYEYLRHFKGPQFGVQGIREFMGVKDRPLTATVPKPKMGWSVEEYAEIAYELWSGGIDLLKDDENFTSFPFNRFEERVRKLYRVRDRVEAETGETKEYLINITGPVNIMEKRAEMVANEGGQYVMIDIVVAGWSALQYMREVTEDLGLAIHAHRAMHAAFTRNPRHGITMLALAKAARMIGVDQIHTGTAVGKMAGNYEEIKRINDFLLSKWEHIRPVFPVASGGLHPGLMPELIRLFGKDLVIQAGGGVMGHPDGPRAGAKALRDAIDAAIEGVDLDEKAKSSPELKKSLREVGLSKAKVGVQH”, the protein production result is “not failed”.

For the sequence “MMWEQFKKEKLRGYLEAKNQRKVDFDIVELLDLINSFDDFVTLSSCSGRIAVVDLEKPGDKASSLFLGKWHEGVEVSEVAEAALRSRKVAWLIQYPPIIHVACRNIGAAKLLMNAANTAGFRRSGVISLSNYVVEIASLERIELPVAEKGLMLVDDAYLSYVVRWANEKLLKGKEKLGRLQEALESLQRENAYCSD”, the protein production result is reported as “not failed”.
